Measurements from FireProtDB (doi:10.1002/pro.5560060315).

Details: Saccharomyces cerevisiae (strain ATCC 204508 / S288c), CD
[1] = pH 3, Thermal, acetate 0.1 M, reversible: yes, structure 1YCC
[2] = pH 3.25, Thermal, acetate 0.1 M, reversible: yes, structure 1YCC
[3] = pH 3.5, Thermal, acetate 0.1 M, reversible: yes, structure 1YCC
[4] = pH 3.75, Thermal, acetate 0.1 M, reversible: yes, structure 1YCC
[5] = pH 4, Thermal, acetate 0.1 M, reversible: yes, structure 1YCC
[6] = pH 4.25, Thermal, acetate 0.1 M, reversible: yes, structure 1YCC
[7] = pH 4.5, 25 °C, Thermal, acetate 0.1 M, reversible: yes, structure 1YCC
[8] = pH 4.5, Thermal, acetate 0.1 M, reversible: yes, structure 1YCC
[9] = pH 5, Thermal, acetate 0.1 M, reversible: yes, structure 1YCC
[10] = pH 7.5, 25 °C, GdnHCl, Tris-HCl 20 mM, NaCl 40 mM, reversible: yes, structure 1YCC
[11] = pH 3, Thermal, acetate 0.1 M, reversible: yes (50-75%), structure 1YCC
[12] = pH 4.75, Thermal, acetate 0.1 M, reversible: yes, structure 1YCC
[13] = pH 5.25, Thermal, acetate 0.1 M, reversible: yes, structure 1YCC
[14] = pH 3, Thermal, acetate 0.1 M, reversible: yes (50-75%)
[15] = pH 3.25, Thermal, acetate 0.1 M, reversible: yes (50-75%)
[16] = pH 3.5, Thermal, acetate 0.1 M, reversible: yes
[17] = pH 3.75, Thermal, acetate 0.1 M, reversible: yes
[18] = pH 4, Thermal, acetate 0.1 M, reversible: yes
[19] = pH 4.25, Thermal, acetate 0.1 M, reversible: yes
[20] = pH 4.5, 25 °C, Thermal, acetate 0.1 M, reversible: yes
[21] = pH 4.5, Thermal, acetate 0.1 M, reversible: yes
[22] = pH 4.75, Thermal, acetate 0.1 M, reversible: yes
[23] = pH 5, Thermal, acetate 0.1 M, reversible: yes
[24] = pH 7.5, 25 °C, GdnHCl, Tris-HCl 20 mM, NaCl 40 mM, reversible: yes

Cytochrome c isoform 1 K79V, P00044, sequence (P00044 whole entry K79V, canonical isoform): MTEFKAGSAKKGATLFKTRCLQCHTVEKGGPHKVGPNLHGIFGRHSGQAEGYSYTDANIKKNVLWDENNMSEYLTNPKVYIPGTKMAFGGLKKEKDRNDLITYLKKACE
Cytochrome c isoform 1 K79I, P00044, sequence (P00044 whole entry K79I, canonical isoform): as the sequence (P00044 whole entry K79V, canonical isoform) above, with V79I counted along it
Cytochrome c isoform 1 wild type, P00044, sequence (P00044 whole entry, canonical isoform): as the sequence (P00044 whole entry K79V, canonical isoform) above, with V79K counted along it

**Q.** Which Tm [1] does the source give for Cytochrome c isoform 1 K79V, P00044 here?
**A.** 22.7 °C

**Q.** And the “change of melting temperature, mutant - wild type (higher = more stable)” value (shortened to “change of melting temperature, mutant”) [1]?
**A.** 1.2 °C

**Q.** What about the “unfolding enthalpy (van 't Hoff)” value [1] of the same substance?
**A.** 37 kcal/mol

**Q.** And the Tm [2]?
**A.** 28.7 °C

**Q.** What about the “change of melting temperature, mutant” value [2] of the same substance?
**A.** 6.1 °C

**Q.** What about the “unfolding enthalpy (van 't Hoff)” value [2] of the same substance?
**A.** 46.3 kcal/mol

**Q.** What about the Tm [3] of the same substance?
**A.** 31.4 °C

**Q.** And the “change of melting temperature, mutant” value [3]?
**A.** 0.7 °C

**Q.** What about the “unfolding enthalpy (van 't Hoff)” value [3] of the same substance?
**A.** 47.3 kcal/mol

**Q.** What about the Tm [4] of the same substance?
**A.** 36.6 °C

**Q.** And the “change of melting temperature, mutant” value [4]?
**A.** 1.7 °C

**Q.** And the “unfolding enthalpy (van 't Hoff)” value [4]?
**A.** 58.5 kcal/mol

**Q.** And the Tm [5]?
**A.** 38.9 °C

**Q.** And the “change of melting temperature, mutant” value [5]?
**A.** -1.8 °C

**Q.** What about the “unfolding enthalpy (van 't Hoff)” value [5] of the same substance?
**A.** 60.2 kcal/mol

**Q.** What about the Tm [6] of the same substance?
**A.** 42.9 °C

**Q.** And the “change of melting temperature, mutant” value [6]?
**A.** -0.2 °C

**Q.** And the “unfolding enthalpy (van 't Hoff)” value [6]?
**A.** 64.8 kcal/mol

**Q.** And the “ddG of mutation (higher = less stable)” value [7]?
**A.** -0.1 kcal/mol

**Q.** And the “heat capacity change of unfolding” value [7]?
**A.** 1.5 kcal/mol/K

**Q.** And the “unfolding enthalpy (van 't Hoff)” value [7]?
**A.** 40 kcal/mol

**Q.** What about the unfolding free energy [7] of the same substance?
**A.** 3.8 kcal/mol

**Q.** And the Tm [8]?
**A.** 46.7 °C

**Q.** What about the “change of melting temperature, mutant” value [8] of the same substance?
**A.** 1.7 °C

**Q.** And the “unfolding enthalpy (van 't Hoff)” value [8]?
**A.** 72.5 kcal/mol

**Q.** And the Tm [9]?
**A.** 49.5 °C

**Q.** And the “change of melting temperature, mutant” value [9]?
**A.** -3.2 °C

**Q.** And the “unfolding enthalpy (van 't Hoff)” value [9]?
**A.** 75.5 kcal/mol

**Q.** What about the “ddG of mutation (higher = less stable)” value [10] of the same substance?
**A.** 1.38 kcal/mol

**Q.** What about the denaturant m value [10] of the same substance?
**A.** 4.01 kcal/mol/M

**Q.** And the unfolding free energy [10]?
**A.** 4.28 kcal/mol

**Q.** Which Tm [11] does the source give for Cytochrome c isoform 1 K79W, P00044 here?
**A.** 22.8 °C

**Q.** What about the “change of melting temperature, mutant” value [11] of the same substance?
**A.** 1.3 °C

**Q.** And the “unfolding enthalpy (van 't Hoff)” value [11]?
**A.** 43.5 kcal/mol

**Q.** What about the Tm [2] of the same substance?
**A.** 22.8 °C

**Q.** What about the “change of melting temperature, mutant” value [2] of the same substance?
**A.** 0.2 °C

**Q.** And the “unfolding enthalpy (van 't Hoff)” value [2]?
**A.** 49.8 kcal/mol

**Q.** And the Tm [3]?
**A.** 27.5 °C

**Q.** And the “change of melting temperature, mutant” value [3]?
**A.** -3.2 °C

**Q.** What about the “unfolding enthalpy (van 't Hoff)” value [3] of the same substance?
**A.** 50.5 kcal/mol

**Q.** And the Tm [4]?
**A.** 29.2 °C

**Q.** What about the “change of melting temperature, mutant” value [4] of the same substance?
**A.** -5.7 °C

**Q.** And the “unfolding enthalpy (van 't Hoff)” value [4]?
**A.** 58.6 kcal/mol

**Q.** And the Tm [6]?
**A.** 31.5 °C

**Q.** And the “change of melting temperature, mutant” value [6]?
**A.** -11.6 °C

**Q.** What about the “unfolding enthalpy (van 't Hoff)” value [6] of the same substance?
**A.** 68.5 kcal/mol

**Q.** And the “ddG of mutation (higher = less stable)” value [7]?
**A.** 1.6 kcal/mol

**Q.** What about the “heat capacity change of unfolding” value [7] of the same substance?
**A.** 1.15 kcal/mol/K

**Q.** And the “unfolding enthalpy (van 't Hoff)” value [7]?
**A.** 51.4 kcal/mol

**Q.** What about the unfolding free energy [7] of the same substance?
**A.** 2.1 kcal/mol

**Q.** And the Tm [8]?
**A.** 36.1 °C

**Q.** And the “change of melting temperature, mutant” value [8]?
**A.** -8.9 °C

**Q.** And the “unfolding enthalpy (van 't Hoff)” value [8]?
**A.** 64.2 kcal/mol

**Q.** And the Tm [12]?
**A.** 39 °C

**Q.** And the “change of melting temperature, mutant” value [12]?
**A.** -9.6 °C

**Q.** And the “unfolding enthalpy (van 't Hoff)” value [12]?
**A.** 71.4 kcal/mol

**Q.** What about the Tm [9] of the same substance?
**A.** 47.6 °C

**Q.** And the “change of melting temperature, mutant” value [9]?
**A.** -5.1 °C

**Q.** And the “unfolding enthalpy (van 't Hoff)” value [9]?
**A.** 78 kcal/mol

**Q.** What about the Tm [13] of the same substance?
**A.** 49.3 °C

**Q.** And the “unfolding enthalpy (van 't Hoff)” value [13]?
**A.** 76.5 kcal/mol

**Q.** And the “ddG of mutation (higher = less stable)” value [10]?
**A.** 1.43 kcal/mol

**Q.** What about the denaturant m value [10] of the same substance?
**A.** 4.16 kcal/mol/M

**Q.** And the unfolding free energy [10]?
**A.** 4.23 kcal/mol

**Q.** Which Tm [14] does the source give for “Cytochrome c isoform 1 wild type, P00044” here?
**A.** 21.5 °C

**Q.** And the “unfolding enthalpy (van 't Hoff)” value [14]?
**A.** 39.6 kcal/mol

**Q.** What about the Tm [15] of the same substance?
**A.** 22.6 °C

**Q.** And the “unfolding enthalpy (van 't Hoff)” value [15]?
**A.** 42 kcal/mol

**Q.** What about the Tm [16] of the same substance?
**A.** 30.7 °C

**Q.** What about the “unfolding enthalpy (van 't Hoff)” value [16] of the same substance?
**A.** 54.2 kcal/mol

**Q.** What about the Tm [17] of the same substance?
**A.** 34.9 °C

**Q.** And the “unfolding enthalpy (van 't Hoff)” value [17]?
**A.** 62.3 kcal/mol

**Q.** What about the Tm [18] of the same substance?
**A.** 40.7 °C

**Q.** And the “unfolding enthalpy (van 't Hoff)” value [18]?
**A.** 69.8 kcal/mol

**Q.** And the Tm [19]?
**A.** 43.1 °C

**Q.** And the “unfolding enthalpy (van 't Hoff)” value [19]?
**A.** 73.7 kcal/mol

**Q.** And the “heat capacity change of unfolding” value [20]?
**A.** 1.4 kcal/mol/K

**Q.** What about the “unfolding enthalpy (van 't Hoff)” value [20] of the same substance?
**A.** 45.4 kcal/mol

**Q.** What about the unfolding free energy [20] of the same substance?
**A.** 3.7 kcal/mol

**Q.** What about the Tm [21] of the same substance?
**A.** 45 °C

**Q.** What about the “unfolding enthalpy (van 't Hoff)” value [21] of the same substance?
**A.** 73.4 kcal/mol

**Q.** What about the Tm [22] of the same substance?
**A.** 48.6 °C

**Q.** And the “unfolding enthalpy (van 't Hoff)” value [22]?
**A.** 79.6 kcal/mol

**Q.** And the Tm [23]?
**A.** 52.7 °C

**Q.** What about the “unfolding enthalpy (van 't Hoff)” value [23] of the same substance?
**A.** 81.9 kcal/mol

**Q.** And the denaturant m value [24]?
**A.** 4.87 kcal/mol/M

**Q.** And the unfolding free energy [24]?
**A.** 5.66 kcal/mol

**Q.** For Cytochrome c isoform 1 K79I, P00044, which Tm [1] is on record?
**A.** 22.3 °C

**Q.** What about the “change of melting temperature, mutant” value [1] of the same substance?
**A.** 0.8 °C

**Q.** What about the “unfolding enthalpy (van 't Hoff)” value [1] of the same substance?
**A.** 33 kcal/mol

**Q.** What about the Tm [2] of the same substance?
**A.** 26.7 °C

**Q.** And the “change of melting temperature, mutant” value [2]?
**A.** 4.1 °C

**Q.** And the “unfolding enthalpy (van 't Hoff)” value [2]?
**A.** 40.8 kcal/mol

**Q.** What about the Tm [3] of the same substance?
**A.** 31.7 °C

**Q.** And the “change of melting temperature, mutant” value [3]?
**A.** 1 °C

**Q.** What about the “unfolding enthalpy (van 't Hoff)” value [3] of the same substance?
**A.** 51.4 kcal/mol

**Q.** What about the Tm [4] of the same substance?
**A.** 35.5 °C

**Q.** And the “change of melting temperature, mutant” value [4]?
**A.** 0.6 °C

**Q.** And the “unfolding enthalpy (van 't Hoff)” value [4]?
**A.** 57.7 kcal/mol

**Q.** And the Tm [5]?
**A.** 38.7 °C

**Q.** What about the “change of melting temperature, mutant” value [5] of the same substance?
**A.** -2 °C

**Q.** And the “unfolding enthalpy (van 't Hoff)” value [5]?
**A.** 61.1 kcal/mol

**Q.** And the Tm [6]?
**A.** 41.3 °C

**Q.** And the “change of melting temperature, mutant” value [6]?
**A.** -1.8 °C

**Q.** What about the “unfolding enthalpy (van 't Hoff)” value [6] of the same substance?
**A.** 67.4 kcal/mol

**Q.** And the Tm [8]?
**A.** 45.2 °C

**Q.** What about the “change of melting temperature, mutant” value [8] of the same substance?
**A.** 0.2 °C

**Q.** And the “unfolding enthalpy (van 't Hoff)” value [8]?
**A.** 69.1 kcal/mol

**Q.** What about the Tm [12] of the same substance?
**A.** 46.9 °C

**Q.** What about the “change of melting temperature, mutant” value [12] of the same substance?
**A.** -1.7 °C

**Q.** What about the “unfolding enthalpy (van 't Hoff)” value [12] of the same substance?
**A.** 73.8 kcal/mol

**Q.** And the Tm [9]?
**A.** 47.7 °C

**Q.** And the “change of melting temperature, mutant” value [9]?
**A.** -5 °C

**Q.** And the “unfolding enthalpy (van 't Hoff)” value [9]?
**A.** 77.4 kcal/mol

**Q.** And the “ddG of mutation (higher = less stable)” value [10]?
**A.** 1.19 kcal/mol

**Q.** What about the denaturant m value [10] of the same substance?
**A.** 4.29 kcal/mol/M

**Q.** What about the unfolding free energy [10] of the same substance?
**A.** 4.47 kcal/mol
